Data reported in the RNAGym collection of RNA variant scans (doi:10.7554/elife.90254).

B1: LINE1-full (parent)
chain: UACGUAGGUGGUUUUCCCCUGAUAGUGCUAAGGGGGCCUGGAAGUUUGGACUGGGCAGAGCUCAACACAGCGUGGCAAAGUGGCUGUGGCUAGACUGCCUCUCUGGAUUCCUCGUCACUCAGCAGGGCAUCUCUGAGAGAAAUGCC

Variants of: B1
Experiment: self-cleavage, relative activity (ratio to wild type); higher = more cleavage; in vitro, sequencing; the parent is a self-cleaving ribozyme

Variant	self-cleavage
UACGUAGGUGGUUUUCCCCUGAUAGUGCUAAGGGGGCCUGGAAGUUUGGACUGGGCAGACCUCAACACAGCGCGGCAAAGUGGCUGUGGCUAGACUGCCUCUCUGGAUUCCUCGUCACUCAGCAGGGCAUCUCUGAGAGAAAUGCC [G60C U73C]	0.04
UACGUAGGUGGUUUUCCCCUGAUAGUGCUAAGGGGGCCUGGAAGUUUGGACUGGGCAGAGAUCAACACAGCGUGGCAAAGUGGCUGUGGCUAGACUGCCUCUCUGGAUUCCUCGUCACUCAGCGGGGCAUCUCUGAGAGAAAUGCC [C61A A124G]	0.04
UACGUAGGUGGUUUUCCCCUGAUAGUGCUAAGGGGGCCUGGAAGUUUGGACUGGGCAGAACUCAACACAGCGUGGCAAAGUGGCUGUGGCUAGACUGCCUCUCUGGAUUCCUCGUCACUCAGCAGGGCAUCUCUGAGAGAAACGCC [G60A U143C]	0
UACGUAGGUGGUUUUCCCCUGAUAGUGCUAAGGGGGCCUGGAAGUUUGGACUGGGCAGAACUCAACACAGCGUGGCAAAGUGGCUGUGGCUAGACUGCCCCUCUGGAUUCCUCGUCACUCAGCAGGGCAUCUCUGAGAGAAAUGCC [G60A U100C]	0.03
UACGUAGGUGGUUUUCCCCUGAUAGUGCUAAGGGGGCCUGGAAGUUUGGACUGGGCAGAGAUCAACACAGCGUGGCAAAGUGGCUGUGGCUAGACUGCCUCUCUGGAUUCCUCGUCACUCAGUAGGGCAUCUCUGAGAGAAAUGCC [C61A C123U]	0.03
UACGUAGGUGGUUUUCCCCUGAUAGUGCUAAGGGGGCCUGGAAGUUUGGACUGGGCAGAACUCAACACAGCGUGGCAAAGUGGCUGUGGCUAGACUGCCUCUCUGGAUUCCUCGUCACACAGCAGGGCAUCUCUGAGAGAAAUGCC [G60A U119A]	0.11
UACGUAGGUGGUUUUCCCCUGAUAGUGCUAAGGGGGCCUGGAAGUUUGGACUGGGCAGAACUCAACACAGCGUGGCAAAGUGGCUGUGGCUAGACUGCCUCUCUGGAUUCCUCGUCACUCAGCAGGGCAUCUCUGAGUGAAAUGCC [G60A A138U]	0.05
UACGUAGGUGGUUUUCCCCUGAUAGUGCUAAGGGGGCCUGGAAGUUUGGACUGGGCAGAGAUCAACACAGCGUGGCAGAGUGGCUGUGGCUAGACUGCCUCUCUGGAUUCCUCGUCACUCAGCAGGGCAUCUCUGAGAGAAAUGCC [C61A A78G]	0.04
UACGUAGGUGGUUUUCCCCUGAUAGUGCUAAGGGGGCCUGGAAGUUUGGACUGGGCAGAGACCAACACAGCGUGGCAAAGUGGCUGUGGCUAGACUGCCUCUCUGGAUUCCUCGUCACUCAGCAGGGCAUCUCUGAGAGAAAUGCC [C61A U62C]	0.08
UACGUAGGUGGUUUUCCCCUGAUAGUGCUAAGGGGGCCUGGAAGUUUGGACUGGGCAGAACUCAACACAGCGUGGCAAAGUGGCUGUGGCUAGACAGCCUCUCUGGAUUCCUCGUCACUCAGCAGGGCAUCUCUGAGAGAAAUGCC [G60A U96A]	0.03
UACGUAGGUGGUUUUCCCCUGAUAGUGCUAAGGGGGCCUGGAAGUUUGGACUGGGCAGAACUCAACACAGCGUGGCAAAGUGGCUGUGGCUAGACCGCCUCUCUGGAUUCCUCGUCACUCAGCAGGGCAUCUCUGAGAGAAAUGCC [G60A U96C]	0.01
UACGUAGGUGGUUUUCCCCUGAUAGUGCUAAGGGGGCCUGGAAGUUUGGACUGGGCAGAACUCAACACAGCGUGGCAAAGUGGCUGUGGCUAGACUGCCUCUCUGGAUUCGUCGUCACUCAGCAGGGCAUCUCUGAGAGAAAUGCC [G60A C111G]	0.02
UACGUAGGUGGUUUUCCCCUGAUAGUGCUAAGGGGGCCUGGAAGUUUGGACUGGGCAGAACUCAACACAGCGUGGCAAAGUGGCUGUGGCUAGACUGCCUCUCUGGAUUCUUCGUCACUCAGCAGGGCAUCUCUGAGAGAAAUGCC [G60A C111U]	0.04
UACGUAGGUGGUUUUCCCCUGAUAGUGCUAAGGGGGCCUGGAAGUUUGGACUGGGCAGAACUCAACACAGCGUGGCAAAGUGGCUGUGGCUAGACUGCCUCUCUGGAUUCCUCGCCACUCAGCAGGGCAUCUCUGAGAGAAAUGCC [G60A U115C]	0.04
UACGUAGGUGGUUUUCCCCUGAUAGUGCUAAGGGGGCCUGGAAGUUUGGACUGGGCAGAUCUCAACACAGCGUGGCAAAGUGGCUGUGGCUAGACUGCCUCUCUGGAUUCCUCGUCACUCAGCAGGGCAUCUCUGAGGGAAAUGCC [G60U A138G]	0.04
UACGUAGGUGGUUUUCCCCUGAUAGUGCUAAGGGGGCCUGGAAGUUUGGACUGGGCAGAUCUCAACACAGCGUGGCAAAGUGGCUGUGGCUAGACUGCCUCUCCGGAUUCCUCGUCACUCAGCAGGGCAUCUCUGAGAGAAAUGCC [G60U U104C]	0.04
UACGUAGGUGGUUUUCCCCUGAUAGUGCUAAGGGGGCCUGGAAGUUUGGACUGGGCAGAACUCAACACAGCGUGGCAAAGUGGCUGUGGCUAGACUGCCUCUCUGGAUCCCUCGUCACUCAGCAGGGCAUCUCUGAGAGAAAUGCC [G60A U109C]	0.02
UACGUAGGUGGUUUUCCCCUGAUAGUGCUAAGGGGGCCUGGAAGUUUGGACUGGGCAGACCUCAACACAGCGUGGCAAAGUGGCUGUGGCUAGACAGCCUCUCUGGAUUCCUCGUCACUCAGCAGGGCAUCUCUGAGAGAAAUGCC [G60C U96A]	0.04
UACGUAGGUGGUUUUCCCCUGAUAGUGCUAAGGGGGCCUGGAAGUUUGGACUGGGCAGAGAUCAACACAGCGUGGCAAAGUGGCUGUGGCUAGACUGCCUCUCUGGGUUCCUCGUCACUCAGCAGGGCAUCUCUGAGAGAAAUGCC [C61A A107G]	0
